Measurements published in the supplement of paper PMC10065799, “High-throughput profiling of sequence recognition by tyrosine kinases and SH2 domains using bacterial peptide display” (eLife, 2023).

target: Hck (UniProt P08631); experiment: phosphorylation enrichment, bacterial display (enrichment ratio); higher = better substrate or ligand; peptides without Tyr show the background
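Note: 11-residue human phosphosite peptides and single-mutation variants displayed on the E. coli surface, counted by deep sequencing, each peptide's frequency after selection divided by its frequency in the unselected input library; frequency after pTyr selection over input frequency; kinase dosed for 20-30% of maximal phosphorylation in three min.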

Hck, sequence (P08631 whole entry, looked up): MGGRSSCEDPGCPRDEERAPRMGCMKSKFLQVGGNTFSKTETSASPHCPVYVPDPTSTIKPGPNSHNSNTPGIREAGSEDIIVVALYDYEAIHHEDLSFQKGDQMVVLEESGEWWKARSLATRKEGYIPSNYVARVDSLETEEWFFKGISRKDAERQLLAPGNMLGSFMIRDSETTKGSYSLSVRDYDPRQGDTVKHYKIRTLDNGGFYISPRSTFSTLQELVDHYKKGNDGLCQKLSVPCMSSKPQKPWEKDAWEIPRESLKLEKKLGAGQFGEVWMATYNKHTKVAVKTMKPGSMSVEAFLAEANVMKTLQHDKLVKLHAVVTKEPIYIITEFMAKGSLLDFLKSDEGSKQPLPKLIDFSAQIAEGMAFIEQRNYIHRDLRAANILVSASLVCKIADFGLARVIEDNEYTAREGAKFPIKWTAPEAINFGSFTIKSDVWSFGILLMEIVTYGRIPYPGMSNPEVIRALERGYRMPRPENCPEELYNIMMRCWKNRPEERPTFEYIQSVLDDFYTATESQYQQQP

Point of comparison: YRAPGYREVVI [TNS2_Y673], phosphorylation enrichment 0.439. Against it:
- GEPLSHTRFSL [TFRC_Y20_Y20H] — higher, 0.478
- KGPNVCKKTVN [REV3L_Y1156_Y1156C] — higher, 0.516
- HDKEFYSVHNK [MET_Y1235_Y1230H_YF] — higher, 1.03
- SVIKEYQIRQV [USH2A_Y3623_G3618S] — higher, 0.443
- EEDPEYKKKFR [FAM161A_Y278] — higher, 0.487
- GIVKAYFVHAR [AIPL1_Y267_R270H_YF] — higher, 0.461
- EIRTQDEAMAS [GFAP_Y242_Y242D] — higher, 0.443
- RAILDYIASKY [GSTA3_Y74_N73D] — higher, 0.471
- INMKEYCKKDF [NTN1_Y490_K489E_YF] — higher, 0.498
- DGQVNYEELVQ [CALM1_Y139_F142L] — higher, 0.594
- GAPATYEGDAR [CACNA1A_Y1013] — higher, 0.467
- IHSGIYFKPES [L2HGDH_Y102_YF] — higher, 2.14
- PYYASYPPSPD [GDAP2_Y491_T489A] — higher, 4.78
- MWGSDYVQLSR [MAP3K4_Y582] — higher, 1.12
- INITIYGKTFH [EFHC1_Y177_R182H] — higher, 0.544
- PVQAAYQKVEA [HBB_Y131_V135E] — higher, 0.653
- EYLQKYKGFKI [SYNE1_Y6953] — lower, 0.345
- LTQRTYMLENA [GPAA1_Y49_S51L] — higher, 0.547
- LEDDMYRKTCT [XPA_Y257] — higher, 0.984
- ADRLEYSRTGL [MMUT_Y287_G284R] — lower, 0.346
- RALRHYYKLNI [ETV6_Y401] — higher, 0.95
- CYSSEYHYVGG [CTSC_Y345_Y340C] — higher, 2.29
- MSRFIYSTDFF [NTRK1_Y676_D674Y_YF] — higher, 2.49
- KRIETYFSKNF [PLP1_Y50_L46R_YF] — higher, 0.47
- RRAKGYPIDLF [ITGB2_Y125_YF] — higher, 0.57
- GDKENYGLPQP [BUB1_Y538_N534D] — higher, 0.469
- GHMFAYDWISI [BEST1_Y227_L224M_YF] — higher, 1.78
- PTEAQYRFIFM [PTPN11_Y511_Q506P_YF] — higher, 1.07
- KDKLPYLYDDP [GPX2_Y125_P126L] — higher, 0.537
- INPIIYAFVVE [CCR5_Y297_G301V] — higher, 1.78
- DMDATYRPMYS [JUP_Y701] — higher, 0.677
- ASYGPYTRVQS [FOXL2_Y258] — higher, 0.793

target: Jak2 (UniProt O60674); experiment: as above
Sequence (O60674 whole entry, looked up): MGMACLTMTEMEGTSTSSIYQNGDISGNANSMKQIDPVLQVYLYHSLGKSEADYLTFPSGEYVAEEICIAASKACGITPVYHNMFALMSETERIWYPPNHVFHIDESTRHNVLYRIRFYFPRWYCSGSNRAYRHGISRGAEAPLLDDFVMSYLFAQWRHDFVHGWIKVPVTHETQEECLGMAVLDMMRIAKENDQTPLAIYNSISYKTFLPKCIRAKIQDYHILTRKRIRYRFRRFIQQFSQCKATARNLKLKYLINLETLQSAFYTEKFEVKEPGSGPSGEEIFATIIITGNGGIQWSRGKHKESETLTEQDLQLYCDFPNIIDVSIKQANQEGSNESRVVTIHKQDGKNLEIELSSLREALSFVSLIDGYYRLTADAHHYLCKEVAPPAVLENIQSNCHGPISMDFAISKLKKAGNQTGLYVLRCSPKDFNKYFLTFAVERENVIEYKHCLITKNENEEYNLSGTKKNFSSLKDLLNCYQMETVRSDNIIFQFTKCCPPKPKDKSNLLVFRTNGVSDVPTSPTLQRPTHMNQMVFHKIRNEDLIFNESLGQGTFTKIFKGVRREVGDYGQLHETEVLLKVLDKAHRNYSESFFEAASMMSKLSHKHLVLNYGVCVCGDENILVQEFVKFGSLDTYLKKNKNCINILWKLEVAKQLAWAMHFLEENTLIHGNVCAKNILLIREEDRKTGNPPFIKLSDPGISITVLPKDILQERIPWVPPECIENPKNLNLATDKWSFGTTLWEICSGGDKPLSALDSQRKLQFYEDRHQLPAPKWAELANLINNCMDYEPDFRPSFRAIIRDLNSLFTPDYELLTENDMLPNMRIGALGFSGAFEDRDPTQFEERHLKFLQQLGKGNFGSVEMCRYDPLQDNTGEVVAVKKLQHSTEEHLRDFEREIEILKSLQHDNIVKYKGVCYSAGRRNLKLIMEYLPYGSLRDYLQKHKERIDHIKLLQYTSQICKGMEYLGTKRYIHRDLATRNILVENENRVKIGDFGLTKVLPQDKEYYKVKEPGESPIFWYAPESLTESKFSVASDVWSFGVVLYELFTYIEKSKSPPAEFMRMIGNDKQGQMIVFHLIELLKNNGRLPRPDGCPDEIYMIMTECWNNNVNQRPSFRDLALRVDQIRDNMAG

Point of comparison: EIRTQDEAMAS [GFAP_Y242_Y242D], phosphorylation enrichment 0.945. Against it:
- GEPLSHTRFSL [TFRC_Y20_Y20H] — lower, 0.742
- KGPNVCKKTVN [REV3L_Y1156_Y1156C] — lower, 0.944
- HDKEFYSVHNK [MET_Y1235_Y1230H_YF] — lower, 0.513
- SVIKEYQIRQV [USH2A_Y3623_G3618S] — lower, 0.567
- EEDPEYKKKFR [FAM161A_Y278] — higher, 1.01
- GIVKAYFVHAR [AIPL1_Y267_R270H_YF] — lower, 0.73
- RAILDYIASKY [GSTA3_Y74_N73D] — lower, 0.718
- INMKEYCKKDF [NTN1_Y490_K489E_YF] — lower, 0.937
- DGQVNYEELVQ [CALM1_Y139_F142L] — higher, 1.43
- GAPATYEGDAR [CACNA1A_Y1013] — lower, 0.497
- IHSGIYFKPES [L2HGDH_Y102_YF] — higher, 2.59
- PYYASYPPSPD [GDAP2_Y491_T489A] — higher, 1.25
- MWGSDYVQLSR [MAP3K4_Y582] — higher, 5.71
- INITIYGKTFH [EFHC1_Y177_R182H] — higher, 1.08
- PVQAAYQKVEA [HBB_Y131_V135E] — higher, 1.16
- EYLQKYKGFKI [SYNE1_Y6953] — lower, 0.707
- LTQRTYMLENA [GPAA1_Y49_S51L] — lower, 0.64
- LEDDMYRKTCT [XPA_Y257] — higher, 1.56
- ADRLEYSRTGL [MMUT_Y287_G284R] — higher, 1.25
- RALRHYYKLNI [ETV6_Y401] — lower, 0.504
- CYSSEYHYVGG [CTSC_Y345_Y340C] — higher, 1.77
- MSRFIYSTDFF [NTRK1_Y676_D674Y_YF] — higher, 1.04
- KRIETYFSKNF [PLP1_Y50_L46R_YF] — lower, 0.723
- RRAKGYPIDLF [ITGB2_Y125_YF] — higher, 1.64
- GDKENYGLPQP [BUB1_Y538_N534D] — lower, 0.715
- GHMFAYDWISI [BEST1_Y227_L224M_YF] — lower, 0.842
- PTEAQYRFIFM [PTPN11_Y511_Q506P_YF] — higher, 1.44
- KDKLPYLYDDP [GPX2_Y125_P126L] — lower, 0.857
- INPIIYAFVVE [CCR5_Y297_G301V] — higher, 1.2
- DMDATYRPMYS [JUP_Y701] — lower, 0.65
- YRAPGYREVVI [TNS2_Y673] — lower, 0.509
- ASYGPYTRVQS [FOXL2_Y258] — lower, 0.539

target: MERTK (UniProt Q12866); experiment: as above
Sequence (Q12866 whole entry, looked up): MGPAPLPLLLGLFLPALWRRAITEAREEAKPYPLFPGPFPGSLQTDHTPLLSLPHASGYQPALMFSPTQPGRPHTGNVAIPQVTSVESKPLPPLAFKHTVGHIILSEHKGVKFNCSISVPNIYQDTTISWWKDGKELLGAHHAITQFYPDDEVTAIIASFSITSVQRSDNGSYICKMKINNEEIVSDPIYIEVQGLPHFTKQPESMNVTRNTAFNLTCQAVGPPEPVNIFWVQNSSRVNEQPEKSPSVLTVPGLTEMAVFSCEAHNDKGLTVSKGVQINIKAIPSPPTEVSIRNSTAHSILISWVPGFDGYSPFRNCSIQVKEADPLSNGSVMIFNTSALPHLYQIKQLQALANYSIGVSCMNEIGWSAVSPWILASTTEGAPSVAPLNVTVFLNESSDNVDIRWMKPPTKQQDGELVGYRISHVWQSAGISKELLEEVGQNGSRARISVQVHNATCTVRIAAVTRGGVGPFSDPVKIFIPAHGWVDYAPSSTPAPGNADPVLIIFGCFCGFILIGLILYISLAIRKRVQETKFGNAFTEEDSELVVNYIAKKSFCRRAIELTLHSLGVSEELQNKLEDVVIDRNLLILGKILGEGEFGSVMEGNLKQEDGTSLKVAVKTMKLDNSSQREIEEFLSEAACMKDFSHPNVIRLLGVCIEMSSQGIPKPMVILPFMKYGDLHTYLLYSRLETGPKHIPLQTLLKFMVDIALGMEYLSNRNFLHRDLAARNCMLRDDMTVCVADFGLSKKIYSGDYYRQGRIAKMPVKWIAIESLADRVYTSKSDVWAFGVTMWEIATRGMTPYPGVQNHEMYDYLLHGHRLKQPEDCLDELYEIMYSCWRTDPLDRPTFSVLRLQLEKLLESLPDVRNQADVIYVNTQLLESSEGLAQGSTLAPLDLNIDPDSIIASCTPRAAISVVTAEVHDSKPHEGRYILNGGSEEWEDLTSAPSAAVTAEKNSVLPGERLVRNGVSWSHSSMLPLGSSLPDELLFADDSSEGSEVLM

Point of comparison: LTQRTYMLENA [GPAA1_Y49_S51L], phosphorylation enrichment 0.536. Against it:
- GEPLSHTRFSL [TFRC_Y20_Y20H] — lower, 0.424
- KGPNVCKKTVN [REV3L_Y1156_Y1156C] — lower, 0.415
- HDKEFYSVHNK [MET_Y1235_Y1230H_YF] — lower, 0.467
- SVIKEYQIRQV [USH2A_Y3623_G3618S] — lower, 0.328
- EEDPEYKKKFR [FAM161A_Y278] — lower, 0.466
- GIVKAYFVHAR [AIPL1_Y267_R270H_YF] — lower, 0.448
- EIRTQDEAMAS [GFAP_Y242_Y242D] — lower, 0.457
- RAILDYIASKY [GSTA3_Y74_N73D] — lower, 0.473
- INMKEYCKKDF [NTN1_Y490_K489E_YF] — lower, 0.468
- DGQVNYEELVQ [CALM1_Y139_F142L] — higher, 0.659
- GAPATYEGDAR [CACNA1A_Y1013] — lower, 0.345
- IHSGIYFKPES [L2HGDH_Y102_YF] — higher, 6.44
- PYYASYPPSPD [GDAP2_Y491_T489A] — higher, 11.2
- MWGSDYVQLSR [MAP3K4_Y582] — higher, 0.561
- INITIYGKTFH [EFHC1_Y177_R182H] — lower, 0.473
- PVQAAYQKVEA [HBB_Y131_V135E] — higher, 0.604
- EYLQKYKGFKI [SYNE1_Y6953] — lower, 0.438
- LEDDMYRKTCT [XPA_Y257] — higher, 0.848
- ADRLEYSRTGL [MMUT_Y287_G284R] — higher, 0.728
- RALRHYYKLNI [ETV6_Y401] — higher, 0.763
- CYSSEYHYVGG [CTSC_Y345_Y340C] — higher, 4.76
- MSRFIYSTDFF [NTRK1_Y676_D674Y_YF] — higher, 8.57
- KRIETYFSKNF [PLP1_Y50_L46R_YF] — lower, 0.395
- RRAKGYPIDLF [ITGB2_Y125_YF] — higher, 0.878
- GDKENYGLPQP [BUB1_Y538_N534D] — lower, 0.432
- GHMFAYDWISI [BEST1_Y227_L224M_YF] — higher, 7.14
- PTEAQYRFIFM [PTPN11_Y511_Q506P_YF] — higher, 0.702
- KDKLPYLYDDP [GPX2_Y125_P126L] — lower, 0.461
- INPIIYAFVVE [CCR5_Y297_G301V] — higher, 4.13
- DMDATYRPMYS [JUP_Y701] — lower, 0.407
- YRAPGYREVVI [TNS2_Y673] — lower, 0.403
- ASYGPYTRVQS [FOXL2_Y258] — lower, 0.376

test system: c-Abl (mouse); experiment: as above

Point of comparison: ASYGPYTRVQS [FOXL2_Y258], phosphorylation enrichment 0.464. Against it:
- GEPLSHTRFSL [TFRC_Y20_Y20H] — higher, 0.637
- KGPNVCKKTVN [REV3L_Y1156_Y1156C] — higher, 1.13
- HDKEFYSVHNK [MET_Y1235_Y1230H_YF] — lower, 0.309
- SVIKEYQIRQV [USH2A_Y3623_G3618S] — lower, 0.409
- EEDPEYKKKFR [FAM161A_Y278] — higher, 0.647
- GIVKAYFVHAR [AIPL1_Y267_R270H_YF] — higher, 0.602
- EIRTQDEAMAS [GFAP_Y242_Y242D] — higher, 0.489
- RAILDYIASKY [GSTA3_Y74_N73D] — higher, 0.616
- INMKEYCKKDF [NTN1_Y490_K489E_YF] — higher, 0.791
- DGQVNYEELVQ [CALM1_Y139_F142L] — higher, 0.781
- GAPATYEGDAR [CACNA1A_Y1013] — lower, 0.397
- IHSGIYFKPES [L2HGDH_Y102_YF] — higher, 8.52
- PYYASYPPSPD [GDAP2_Y491_T489A] — higher, 4.3
- MWGSDYVQLSR [MAP3K4_Y582] — higher, 0.53
- INITIYGKTFH [EFHC1_Y177_R182H] — higher, 0.958
- PVQAAYQKVEA [HBB_Y131_V135E] — higher, 0.879
- EYLQKYKGFKI [SYNE1_Y6953] — higher, 0.569
- LTQRTYMLENA [GPAA1_Y49_S51L] — higher, 0.623
- LEDDMYRKTCT [XPA_Y257] — higher, 1.17
- ADRLEYSRTGL [MMUT_Y287_G284R] — higher, 0.498
- RALRHYYKLNI [ETV6_Y401] — lower, 0.371
- CYSSEYHYVGG [CTSC_Y345_Y340C] — higher, 2.79
- MSRFIYSTDFF [NTRK1_Y676_D674Y_YF] — higher, 0.664
- KRIETYFSKNF [PLP1_Y50_L46R_YF] — higher, 0.752
- RRAKGYPIDLF [ITGB2_Y125_YF] — higher, 0.771
- GDKENYGLPQP [BUB1_Y538_N534D] — higher, 0.632
- GHMFAYDWISI [BEST1_Y227_L224M_YF] — higher, 0.922
- PTEAQYRFIFM [PTPN11_Y511_Q506P_YF] — higher, 1.32
- KDKLPYLYDDP [GPX2_Y125_P126L] — higher, 0.547
- INPIIYAFVVE [CCR5_Y297_G301V] — higher, 2.37
- DMDATYRPMYS [JUP_Y701] — higher, 0.656
- YRAPGYREVVI [TNS2_Y673] — higher, 2.11
